Assay results from patent US20140193431A1 (KOREA RESEARCH INSTITUTE OF BIOSCIENCE AND BIOTECHNOLOGY, published 2014).

How the values were obtained:
[1] = biological target: c-Met (ligand of the SPR analysis, form not stated) (UniProt P08581); experiment: SPR (ProteOn XPR36), B7 at 2.5 to 80 nM as analyte, Langmuir 1:1 fit, grouped
[2] = biological target: T1, dog Met receptor on MDCK cells (dog, UniProt Q75ZY9 25-1382); experiment: FACS on MDCK cells, Alexa Fluor 488 anti-human IgG
T1 construct: whole, on cells; also called Met receptor of dog kidney MDCK (Madin-Darby Canine Kidney) cells
T1 sequence (Q75ZY9 25-1382): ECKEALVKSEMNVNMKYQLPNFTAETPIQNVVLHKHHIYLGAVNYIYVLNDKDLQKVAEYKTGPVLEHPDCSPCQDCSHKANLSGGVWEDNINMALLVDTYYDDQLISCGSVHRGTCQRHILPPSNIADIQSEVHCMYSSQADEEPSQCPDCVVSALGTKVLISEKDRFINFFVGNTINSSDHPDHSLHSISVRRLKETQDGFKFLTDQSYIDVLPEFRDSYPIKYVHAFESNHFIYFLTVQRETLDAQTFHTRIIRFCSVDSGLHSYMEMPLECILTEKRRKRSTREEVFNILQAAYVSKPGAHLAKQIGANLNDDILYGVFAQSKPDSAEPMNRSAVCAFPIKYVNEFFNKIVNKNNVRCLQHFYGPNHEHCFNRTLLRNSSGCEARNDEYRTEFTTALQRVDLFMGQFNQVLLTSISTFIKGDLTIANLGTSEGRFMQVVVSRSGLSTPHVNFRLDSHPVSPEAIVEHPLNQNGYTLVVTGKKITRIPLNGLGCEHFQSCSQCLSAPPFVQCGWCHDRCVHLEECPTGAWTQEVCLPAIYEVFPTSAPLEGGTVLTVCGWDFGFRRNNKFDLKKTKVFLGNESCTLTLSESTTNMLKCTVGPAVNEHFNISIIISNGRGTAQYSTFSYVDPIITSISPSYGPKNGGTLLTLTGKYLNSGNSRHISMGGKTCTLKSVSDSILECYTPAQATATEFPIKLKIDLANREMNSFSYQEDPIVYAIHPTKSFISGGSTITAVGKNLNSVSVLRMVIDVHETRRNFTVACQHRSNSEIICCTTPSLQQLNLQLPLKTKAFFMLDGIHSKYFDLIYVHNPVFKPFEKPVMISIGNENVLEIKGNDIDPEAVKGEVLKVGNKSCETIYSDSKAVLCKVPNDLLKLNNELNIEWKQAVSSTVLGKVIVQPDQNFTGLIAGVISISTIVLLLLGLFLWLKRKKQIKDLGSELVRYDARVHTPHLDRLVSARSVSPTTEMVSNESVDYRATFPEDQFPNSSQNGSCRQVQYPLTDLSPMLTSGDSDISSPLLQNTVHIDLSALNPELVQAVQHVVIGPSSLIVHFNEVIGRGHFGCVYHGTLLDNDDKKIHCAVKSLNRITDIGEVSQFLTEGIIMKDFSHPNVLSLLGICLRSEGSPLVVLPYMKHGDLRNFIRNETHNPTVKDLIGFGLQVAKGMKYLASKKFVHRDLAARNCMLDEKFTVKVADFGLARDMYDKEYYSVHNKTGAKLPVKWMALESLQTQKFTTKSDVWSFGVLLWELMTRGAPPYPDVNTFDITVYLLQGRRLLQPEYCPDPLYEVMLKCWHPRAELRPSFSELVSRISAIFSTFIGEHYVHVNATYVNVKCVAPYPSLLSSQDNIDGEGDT
Method: Each of Hep3B, HeLa, A549 and HepG2, known to readily express the Met receptor, MCF7 cells known to not readily express the Met receptor, and dog kidney MDCK (Madin-Darby Canine Kidney) cells was prepared, washed twice with PBS, detached by treatment with trypsin, washed again with PBS, and then suspended in PBS (PBA buffer) containing 1% BSA protein. Then, the cells were treated with the purified with the purified B7 antibody at 1:100 at 4° C., after which the cells were washed with PBA buffer and precipitated by centrifugation at 1200 rpm for 3 minutes, and the washing and precipitation process was repeated three times. […] The cells were washed in the same manner as described above and subjected to FACS analysis (BD Cantoll Flow Cytometer) (FIG. 6). Herein, human IgG (hIgG) was used as the internal standard. FIG. 6 is a graphic diagram showing the results of FACS analysis performed to examine whether the B7 antibody did bind to Hep3B, HeLa, A549, HepG2, MCF7 and dog kidney MDCK cells.

[3] = biological target: c-Met (ligand of the SPR analysis, form not stated) (UniProt P08581); experiment: SPR (ProteOn XPR36), B7 antibody flowed at 2.5-80 nM, Langmuir 1:1 model; immobilised protein not named

B1: B7 antibody (human anti-c-Met antibody, whole IgG) (antibody, V domains shown)
VH: QVQLQEWGAGLLKPSETLSLTCAVSGGSLSGHYWSWVRLPPGKGLEWIGEISHSGNTNYNSSLKSRASISIDTSKNEYSLNLKSVTAVDTAVYYCARFYGDYPSSYGMDVWGQGTTVTVSS
VL: QSALTQPASVSGSPGQSITISCTGTISDIGTYDFVSWYQHKPGKAPKLLIFDVNNRPSGVSSRFSGSKSDNTASLSISGFQAEDEADYYCSSYTDNRGLVLFGGGTKLTVLR
notes: Whole IgG made by cloning the B7 phage variable regions into pNATABH/pNATABL vectors and expressing them in 293E cells; also called human antibody B7; C-Met B7 antibody
Question: How did the kon [1] turn out when B1 was run?
Answer: 73000 M⁻¹ s⁻¹

Question: Does B1 bind [2]?
Answer: no binding (tested: 1:100)

Question: What about the Kd [3] of the same binder?
Answer: 3.3 nM
